The values that follow come from US7566447B2, “Biocides” (Iogenetics, LLC, priority 2003, dated 2009).

Where only a bound is given, the exact number is not on record here.

In one data set the test system is Caco-2 Host Cells. Description: Host cell toxicity assay by LDH release (CYTOTOX 96). Particulars: control medium alone for 2 h, 0-5% non toxic, 5-10% mild toxicity. The data set is classed as cell-based, human. The protocol:
Host cell toxicity assay was performed by measuring the release of lactate dehydrogenase (LDH) in the medium using a CYTOTOX 96 Non-Radioactive Cytotoxicity Assay kit (Promega, Madison, Wis.). Toxicity was therefore classified as non toxic 0-5% LDH release and mild toxicity 5-10% LDH release (ref).

Another data set deals with C. parvum sporozoites. The experiment in a line: Effect of PLA2 on sporozoite infectivity for Caco-2 monolayers (immunofluorescence assay). In kind it is cell-based, Cryptosporidium parvum. As to the method: (§1) This experiment describes the effects of PLA2 on sporozoite infectivity. Briefly, sporozoites were incubated in an isotonic saline solution (37° C., 30 min) with a range of concentrations of PLA2 isolated from honey bee venom (Sigma-Aldrich Corp., St. Louis, Mo., 1.5 U/μg protein). Control sporozoites were identically incubated in buffer containing concentration-matched BSA but no PLA2. Sporozoites were then washed in medium and inoculated onto replicate Caco-2 human intestinal epithelial cell monolayers. 24 h later, infection was quantified in test and control monolayers by immunofluorescence assay as described herein and the mean percent reduction of infection calculated. […] Percent viability of Caco-2 cells following exposure to PLA2-treated sporozoites (86%) was similar to that of uninoculated control cells (91 %) at 24 hrs, as determined by trypan blue dye exclusion. […] Through fusion of PLA2 to a monoclonal antibody with a high affinity for sporozoites, such as 1E10 or 4H9, lethal concentrations of biocide are deliverable to the sporozoite surface with relatively low amounts of biocide being used.

For another data set, the system named is Caco-2 cells. The experiment in a line: Caco-2 cell viability by trypan blue dye exclusion. In kind it is cell-based, human. The following applies: 24 hrs, uninoculated control cells 91 %. The protocol:
as §1

cathelicidin: the “% LDH release” value with Caco-2 Host Cells (10 μg/ml) is listed as 1.6 ± 0.3 %; with Caco-2 Host Cells (100 μg/ml), 5.6 ± 0.9 %.

Consider bee-venom phospholipase A2 [PLA2], for which, in the data set with C. parvum sporozoites (preliminary data), the “PLA2 concentration effective in neutralization” value was below 0.02 units/ml. Also, the “PLA2 concentration achieving highly significant reduction of sporozoite infectivity” value in the data set on C. parvum sporozoites (sporozoites incubated 37° C., 30 min, Caco-2 monolayers, 24 h, P<0.0005) is reported as 0.014 U/ml. Moreover, the “Percent viability of Caco-2 cells following exposure to PLA2-treated sporozoites” value in the data set with Caco-2 cells was determined as 86%.

As to b-defensin 1 [βD1], the “% LDH release” value in the data set with Caco-2 Host Cells (10 μg/ml) turned out to be 0.8 ± 1.0%.
